Measured values as given in PMC2646663 (Biochemistry, 2008).
One block for each binder: values may come before it.

Tests used:
[1] = biological target: T1, Formylglycinamide ribonucleotide amidotransferase (small PurL) from Thermotoga maritima (Thermotoga maritima, UniProt Q9X0X3 1-603); experiment: crystal structure
T1 sequence: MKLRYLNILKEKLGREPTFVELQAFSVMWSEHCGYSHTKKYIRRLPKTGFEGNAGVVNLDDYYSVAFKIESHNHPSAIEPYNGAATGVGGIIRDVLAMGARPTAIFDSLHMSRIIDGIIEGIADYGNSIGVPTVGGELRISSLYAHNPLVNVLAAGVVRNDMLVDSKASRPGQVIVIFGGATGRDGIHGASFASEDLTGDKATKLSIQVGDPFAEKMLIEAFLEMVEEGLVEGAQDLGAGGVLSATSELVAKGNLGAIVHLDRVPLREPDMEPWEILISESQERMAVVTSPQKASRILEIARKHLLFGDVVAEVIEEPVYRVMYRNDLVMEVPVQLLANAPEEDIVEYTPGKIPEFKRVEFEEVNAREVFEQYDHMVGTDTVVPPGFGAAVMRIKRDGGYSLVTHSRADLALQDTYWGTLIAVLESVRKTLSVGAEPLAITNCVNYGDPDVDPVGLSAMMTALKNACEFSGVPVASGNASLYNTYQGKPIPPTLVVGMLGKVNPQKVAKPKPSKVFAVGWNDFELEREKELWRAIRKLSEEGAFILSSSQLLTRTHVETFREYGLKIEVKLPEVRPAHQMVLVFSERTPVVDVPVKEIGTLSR

[2] = biological target: the molecule itself; experiment: crystal structure

stoichiometry N [1]: 1 TmPurQ per TmPurL
B1: PurQ (glutaminase subunit of FGAR amidotransferase) from Thermotoga maritima (enzyme)
chain: MKPRACVVVYPGSNCDRDAYHALEINGFEPSYVGLDDKLDDYELIILPGGFSYGDYLRPGAVAAREKIAFEIAKAAERGKLIMGICNGFQILIEMGLLKGALLQNSSGKFICKWVDLIVENNDTPFTNAFEKGEKIRIPIAHGFGRYVKIDDVNVVLRYVKDVNGSDERIAGVLNESGNVFGLMPHPERAVEELIGGEDGKKVFQSILNYLKR
modifications: glutamyl thioester intermediate covalently linked to Cys86 (seen in the crystal structure)

stoichiometry N [1]: 2 TmPurS per TmPurL
B2: PurS from Thermotoga maritima (natural protein)
chain: MPLFKFAIDVQYRSNVRDPRGETIERVLREEKGLPVKKLRLGKSIHLEVEAENKEKAYEIVKKACEELLVNPVVEEYEVREL
stoichiometry N [2]: 2
